This data set has as its system MS2 coat protein. Kind of data set: apparent KD of MS2 coat protein; designed switch direction (-1 OFF switch, 1 ON switch): 1; higher = weaker reporter binding. An outline of the steps:
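SNAP-549-labelled MS2 coat protein was titrated, doubling from 0.7 or 1.5 nM to 3 µM, over designed RNA switches transcribed on Illumina chips by stalled E. coli RNA polymerase. Runs were done without input, with 200 uM small-molecule ligand, or with an oligonucleotide input. Apparent KD is the per-design median over clusters of curve-fitted normalised fluorescence.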

Where [1] appears, read: input ligand: microRNA oligo, concentration not stated.
Where [2] appears, read: Eterna round: R95, input ligand: FMN 200 uM.
[3] abbreviates: Eterna round: R95, input ligand: microRNA oligo, concentration not stated.
Where [4] appears, read: Eterna round: R95, input ligand: none.

On to “UUACUCAUGUAAGGAUAUGCAGCCGAAACGGCUGCAGAAGGUACUAUAAUACAUGAGGAUCACCCAUGUCUCUAUUAUAAAGUU [Mat - Same State NG 1 - JL mod - D95] (Eterna round: R96, puzzle: Same State NG 1)”, for which the “apparent KD of MS2 coat protein” value by setting is: (input ligand: FMN 200 uM) 94.8 nM; under setting [1], 43.4 nM; (input ligand: none) 49.5 nM.
On to “CCAACAUACAAUUUAAGAUCACAUGAGGAUCACCCAUGUAUGCAGGAUAUCAGCUCGUGUAGAGCUGAGAAGGGCAAUUUAAUU [SSNG3/1-A4] (Eterna round: R96, puzzle: Same State NG 3)”, for which the “apparent KD of MS2 coat protein” value by setting is: (input ligand: FMN 200 uM) 103 nM; under setting [1], 193 nM; (input ligand: none) 265 nM.
Turning to “GGACGUCACUCAAACAAUUAAACAUGAGGAUCACCCAUGUCACAGGAUAUGGAUCCUAAUUGGAUCCAGAAGGGUGAGACGUCC [Fiskers NG3ss - 41] (Eterna round: R96, puzzle: Same State NG 3)”, the “apparent KD of MS2 coat protein” value under setting [1] was 193 nM.
With “AUUAUUUAUGCAGGAUAUGAUUAACAUGAGGAUCACCCAUGUGGUGUUGUGAGUAAGGAGAGUGAUCAGAAGGGCAGUUUUUUU [JMF's solution 43] (Eterna round: R96, puzzle: Same State NG 2)”, the “apparent KD of MS2 coat protein” value runs as follows: (input ligand: FMN 200 uM) 568 nM; under setting [1], 231 nM; (input ligand: none) 406 nM.
Turning to “GUUACAUGAGGAUCACCCAUGUAUGUGUGGGAGUAAGUGUCUUAGGAUAUCUAUUAUUUAAAUUAAGAGAAGGAAGAUUGUUGU [JMF's solution 7] (Eterna round: R96, puzzle: Same State NG 3)”, the “apparent KD of MS2 coat protein” value under setting [1] came out at 93 nM.
As to “GUGCAACCGUGUGAGGAUAUCGGUGGUAAAACAUGAGGAUCACCCAUGUCCGAAGCUCGGACCUCCGAGAAGGCGCACAGUUGCA [Same State 2 - Mod of Erisin v.1] (puzzle: Same State 2)”, the “apparent KD of MS2 coat protein” value under setting [2] was found to be 6.82 nM, the “apparent KD of MS2 coat protein” value under setting [3] was found to be 5.46 nM and the “apparent KD of MS2 coat protein” value under setting [4] is 7.08 nM.
For the sequence “AGCUAUUAAUCAGGAUAUAGUGACAUGAGGAUCACCCAUGUAUUGAUGAUUAAAUGUGGUCGCCGCUAGAAGGGAUUACUAACA [SameState NG2 #46] (Eterna round: R96, puzzle: Same State NG 2)”, the “apparent KD of MS2 coat protein” value (input ligand: FMN 200 uM) turned out to be 35.2 nM, the “apparent KD of MS2 coat protein” value under setting [1] stood at 23.2 nM and the “apparent KD of MS2 coat protein” value (input ligand: none) is 30.7 nM.
As to “AUUAUUUAUGCAGGAUAUGAUUAACAUGAGGAUCACCCAUGUGGUGUUGUGAGUAAGGAGAGUGAUCAGAAGGGCAUCUUUUUU [JMF's solution 44] (Eterna round: R96, puzzle: Same State NG 2)”, the “apparent KD of MS2 coat protein” value worked out at 610 nM (input ligand: FMN 200 uM), 227 nM under setting [1] and 414 nM (input ligand: none).
As for “UGUCCAGCCUGAGCUGGACAAAAGCAUGUACAUGAGGAUCACCCAUGUUCAUGUACAAGCUUUUUGCUCGUCUUAGG [salish99_208a_r3_066] (puzzle: Sensor for hsa-mir-208a)”, the “apparent KD of MS2 coat protein” value amounted to 695 nM under setting [2], 19.2 nM under setting [3] and 506 nM under setting [4].
On to “CGUCGUUUGAUAGGAUAUCGCUAUACAUGAGGAUCACCCAUGUUUACCACGCUGGUUUUUCAUACCGAGAAGGAUUCUGAUGUU [salish99_SSNG02_r04_016] (Eterna round: R96, puzzle: Same State NG 2)”, for which the “apparent KD of MS2 coat protein” value runs as follows: (input ligand: FMN 200 uM) 49.8 nM; under setting [1], 42.4 nM; (input ligand: none) 44.1 nM.
On to “GCGGAACCUGACAUGAGGAUCACCCAUGUUCCGGAAACGGCACAGGAUAUCUGUCCGAAAAGGUCAGAGAAGGGUGGAAACCGC [Fiskers NG3ss - 98] (Eterna round: R96, puzzle: Same State NG 3)”, for which the “apparent KD of MS2 coat protein” value was 68 nM (input ligand: FMN 200 uM), 179 nM under setting [1] and 193 nM (input ligand: none).
For “UCGGGCGUACUUGCUGACAUGAGGAUCACCCAUGUGAUUGGGCAGGAUAUGGUUCCGUUUCGGUUCCAGAAGGUCCUCGGUGCU [salish99_SSNG3_r04_315] (Eterna round: R96, puzzle: Same State NG 3)”, the “apparent KD of MS2 coat protein” value by setting is: (input ligand: FMN 200 uM) 593 nM; under setting [1], 230 nM; (input ligand: none) 347 nM.
Consider “GUAGAAUAACUAGAGGAUAUCCGAGUGGUAACAUGAGGAUCACCCAUGUGAUGAAAGGAACAUGAGGAGAAGGCUAGAAGUAAUG [Mat - Same State 2 - Mod of JL - D81] (puzzle: Same State 2)”, for which the “apparent KD of MS2 coat protein” value was 17.5 nM under setting [2], 61.1 nM under setting [3] and 48.1 nM under setting [4].
Consider “GCGCAGCUGGGUGAGGAUAUCGGUGGUAAAACAUGAGGAUCACCCAUGUCCGAAGCUCGGACUUCCGAGAAGGCGCCCGGCUGCA [Ridigea] (puzzle: Same State 2)”, for which the “apparent KD of MS2 coat protein” value is 13 nM under setting [2], 72.3 nM under setting [3] and 115 nM under setting [4].
Regarding “GACCGCGAGGAAGGAUAUCGAGCCUUAUUGGCUCGAGAAGGUCCAUAAAGGACAUGAGGAUCACCCAUGUGGUGAGAAGCGGUC [Mat - Same State NG 1 - JL mod - D76] (Eterna round: R96, puzzle: Same State NG 1)”, the “apparent KD of MS2 coat protein” value by setting is: (input ligand: FMN 200 uM) 187 nM; under setting [1], 1430 nM; (input ligand: none) 1160 nM.
“AUAUUACAUGAGGAUCACCCAUGUCUCUAAAGUCGAGGAUAUGGGCAGGUUAUAUCCGAACCAGAAGGCGAAUUAU [SS1 Teenbexe 9] (puzzle: Same State 1)”: the “apparent KD of MS2 coat protein” value by setting is: under setting [2], 66.9 nM; under setting [3], 317 nM; under setting [4], 633 nM.
Turning to “ACAUGAAAUUGAGGAUAUUUUGUACCUACAUGUGACAUGAGGAUCACCCAUGUGGUAAGUAUGAGAAAGAAGGCAAAGAUAUGU [Equivalence 11 - Jieux - Same State NG 2] (Eterna round: R96, puzzle: Same State NG 2)”, the “apparent KD of MS2 coat protein” value (input ligand: FMN 200 uM) was determined as 26.6 nM, the “apparent KD of MS2 coat protein” value under setting [1] amounted to 43.3 nM and the “apparent KD of MS2 coat protein” value (input ligand: none) is 51 nM.
Take “AUAAGUUCGAUGCUCGUCUCUCCGUACUAACAUGAGGAUCACCCAUGUGGUCGGGAAGUAGCCCGACCAGUAUGGCC [Vearebe] (puzzle: Sensor for hsa-mir-208a)”: the “apparent KD of MS2 coat protein” value runs as follows: under setting [2], 65.4 nM; under setting [3], 53.3 nM; under setting [4], 82.1 nM.
On to “AGGCUCAGACGAGGAUAUGAUCAUGGCGCUUCGGCGCAUACAUGAGGAUCACCCAUGUAGGGUGAUCAGAAGGUGUCUGAGCCA [SSNG2/8-B1] (Eterna round: R96, puzzle: Same State NG 2)”, for which the “apparent KD of MS2 coat protein” value reads like this: (input ligand: FMN 200 uM) 92.1 nM; under setting [1], 505 nM; (input ligand: none) 1210 nM.
On to “CCGGGUAAUGGAGGAUAUGGAGCCUUAUUGGCUCCAGAAGGUCAAUAACAUGAGGAUCACCCAUGUCCGGCGGUCAAUAGACCG [Eli NG1ss - 68] (Eterna round: R96, puzzle: Same State NG 1)”, for which the “apparent KD of MS2 coat protein” value (input ligand: FMN 200 uM) is 87.5 nM, the “apparent KD of MS2 coat protein” value under setting [1] is 202 nM and the “apparent KD of MS2 coat protein” value (input ligand: none) worked out at 775 nM.
For the sequence “AGAUGUUAAUCAGGAUAUGGGCACAUGAGGAUCACCCAUGUAACGUAGAUACGAUGUGGUCAAGUCUAGAAGGGAUAGCUAACA [SameState NG2 #78] (Eterna round: R96, puzzle: Same State NG 2)”, the “apparent KD of MS2 coat protein” value was determined as 125 nM (input ligand: FMN 200 uM), 60.7 nM under setting [1] and 65.9 nM (input ligand: none).
As for “GUGCUCGUGUAAGGAUAUGCAGCCGUUUCGGCUGCAGAAGGUACUAUAAUACAUGAGGAUCACCCAUGUCUCUAUUGUUUGGUG [salish99_SSNG1_r04_906] (Eterna round: R96, puzzle: Same State NG 1)”, the “apparent KD of MS2 coat protein” value under setting [1] was 76.3 nM.
For the sequence “AAAAGAACCACAGGAUAUACACUCCUAGCGGCGGUAGAAGGGUGGAACAUGAGGAUCACCCAUGUACGUCUGGAAUCAGACUAA [Radianis] (Eterna round: R96, puzzle: Same State NG 1)”, the “apparent KD of MS2 coat protein” value is, setting by setting: (input ligand: FMN 200 uM) 267 nM; under setting [1], 233 nM; (input ligand: none) 857 nM.
Regarding “GGUGCAAUAAACGCCUACAUGAGGAUCACCCAUGUAUGUAGGCAGGAUAUCGUAUGCAAAGCAUACGAGAAGGGCUGUAGUACC [Mat - Same State NG 3 - JL Mod - D42] (Eterna round: R96, puzzle: Same State NG 3)”, the “apparent KD of MS2 coat protein” value stood at 53.7 nM (input ligand: FMN 200 uM), 116 nM under setting [1] and 118 nM (input ligand: none).
As to “GUGGUCAGACAUGAGGAUCACCCAUGUGGAAUAAAUAAGGUACAGGAUAUCUAAUAUAGGAUAUAAGAGAAGGGUAGGUUGGUG (Eterna round: R96, puzzle: Same State NG 3)”, the “apparent KD of MS2 coat protein” value under setting [1] is 55.9 nM.
As to “GGUCCAGCCUGAGCUGGACAAAAGCAUGUACAUGAGGAUCACCCAUGUUCAUGUACAAGCUUUUUGCUCGUCUUAGU [salish99_208a_r3_069] (puzzle: Sensor for hsa-mir-208a)”, the “apparent KD of MS2 coat protein” value under setting [2] was determined as 536 nM, the “apparent KD of MS2 coat protein” value under setting [3] was 16.3 nM and the “apparent KD of MS2 coat protein” value under setting [4] turned out to be 730 nM.
The like results for “AGUCCAGCCUGAGCUGGACAAAAGCAUGUACAUGAGGAUCACCCAUGUUCAUGUACAAGCUUUUUGCUCGUCUUACG [salish99_208a_r3_078] (puzzle: Sensor for hsa-mir-208a)” were, in that order, 673 nM, 17.1 nM and 638 nM.

Source of the values: the supplement of paper PMC9170038.
